Experimental data taken from PMC11068555.

Legend:
[1] = target: WIV1 S Foldon his (prefusion stabilized spike ectodomain) (sarbecovirus WIV1 (clade 1a) | bacteriophage T4); assay: native gel or EMSA
[2] = target: SHC014 S Foldon his (prefusion stabilized spike ectodomain) (sarbecovirus SHC014 (clade 1a) | bacteriophage T4); assay: native gel or EMSA

## WIV1 S Foldon his (prefusion stabilized spike ectodomain) (domain or fragment)
[1]
  stoichiometry N: 3

## SHC014 S Foldon his (prefusion stabilized spike ectodomain) (domain or fragment)
[2]
  stoichiometry N: 3
